# In patent US20150216998A1, “ENDO180-TARGETED PARTICLES FOR SELECTIVE DELIVERY OF THERAPEUTIC AND DIAGNOSTIC AGENTS” (QBI ENTERPRISES LTD., priority 2012, published 2015):
# B1: MB: anti-ENDO180 scFv clone G7V, SEQ ID NO:6, also known as minibody (protein)
# scFv: MKYLLPTAAAGLLLLAASGAHAQVQLVQSGGGLVKPGGSLRLSCAASGFTFSSYSMNWVRQAPGKGLEWVANIKPDGSERHSVDSVKGRFTISRDNSKNSLYLQMNSLRAEDTAVYYCARPGAGRLDYWGQGTLVTVSSGGGGSGGGGSGGGGSNFMLTQDAAVSVALGQTVRITCQGDSLRSYYASWYQQKPGQAPVLVVYGKNNRPSGIPDRFSGSSSGNTASLTITGAQAEDEADYYCNSRDSSGNPWAFGGGTKVTVLASGKPIPNPLLGLDSTHHHHHH
# modifications: Polypeptide encoded by SEQ ID NO:5
# Key:
# [1] = system: ENDO180 expressing cell lines; assay: FACS binding capacity screening, all tested ENDO180 expressing cell lines; format: cell-based
# Protocol: For binding analysis, 3.5×10^5 cells were trypsinized, spun down, re-suspended with FACS buffer (1% fetal bovine serum in 1×PBS), incubated for 30 minutes on ice with anti ENDO180 mAbs (1 μg) and washed with 1 ml FACS buffer. mAb samples were incubated with a secondary FITC conjugated goat anti mouse IgG antibody (115-095-072) (1:100, 150 μg/ml) in 50 μl of FACS buffer 30 minutes on ice, resuspended in 1 ml FACS buffer and analyzed using a FACS Calibur flow cytometer.
# Cell lines which express different ENDO180 receptor levels were tested: NRK+ (a normal rat kidney), DU145^+ (a human prostate adenocarcinoma), LLC^+ (a mouse Lewis lung carcinoma), DU145^− and LLC^− (control cell lines, which are low expressors of ENDO180 receptor levels, i.e. express the PIRES Puro empty plasmid), A549 (human lung carcinoma) and CT26 (mouse colon carcinoma). NRK+, DU145^+ and LLC^+ stably express ENDO180 receptor levels. A549 and CT26 express naturally unknown levels of ENDO180 receptor. The binding capacity of the above cell lines was compared using 4 different Abs: mAb 8D8 clone, mAb10C12 clone, minibody (MB) and anti-wnt minibody (negative control).
# A new batch was tested and the secondary Ab was changed (FITC conjugated goat anti mouse IgG F(ab)2 fragment, 115-095-072, Jackson Immunoresearch). The new MB batch was labeled directly with protein labeling kit.
# tested cell lines = assay: Internalization of anti-ENDO180 antibodies into the tested cell lines (confocal microscopy); format: cell-based; conditions: unconjugated Abs followed by secondary FITC goat anti mouse Ab
# Protocol: Internalization assays were performed in 24 well plates. 1×10^5 A549 or NRK-ENDO180 or NRK naive cells were seeded on cover slips in RPMI or DMEM medium respectively, supplemented with antibiotics, L-Glutamine and 10% fetal calf serum (Biological Industries, Beit Haemek, Israel).
# For membrane staining, cells were stained with CellTracker™ DilC18 (5)-DS solution (Invitrogen, Carlsbad, Calif., USA), diluted 1:5000 with PBS. For cell membrane labeling, Concanavalin A, Alexa fluor 647 conjugate (10 μg/ml) (C21421, Invitrogen) was used. For nuclei staining, cells were stained with Hoechst (1:10,000 in PBS) (33258, Sigma). […] Subsequently, the cells were washed twice using cold PBS, fixated with 4% paraformaldehyde (PFA) and washed again with cold PBS. Membrane and nuclei staining were performed after fixation.
# The cells were mounted using fluorescent mounting medium (Golden Bridge international, Mukilteo, Wash., USA) and fluorescence was measured using Andor Spinning disc confocal microscope and the Meta 510 Zeiss LSM confocal microscope. Laser beams at 405, 488, 561 and 650 nm were used for UV, Rhodamine, Concavaline A and CellTracker™, fluorophores excitation respectively. Serial optical sections of the cells were recorded for each treatment and the images were processed using Zeiss LSM Image browser software. […]
molecule,measurement,setting,value
B1,binding capacity,"[1]; all of the tested cell lines, first batch, secondary FITC Ab",weak binding capacity
same,binding capacity,"[1]; new batch, labeled directly with protein labeling kit, FIGS. 4A-D",No significant improvement in binding capacity
same,internalization,tested cell lines,no internalization
